Measurements reported in the supplement of paper PMC7125110.
± gives the standard error. For some assays here: This sample holds only a part of the variants without activity.

B1: glmS ribozyme (parent)
chain: AUAAAAGCGCCAGAACUACAGAAAUGUAGUUGACGAGGAGGAGGUUUAUCGAAUUUUCGGCGGAUGCCUCCAAA

Tests used:
Details in all cases: with glucosamine-6-phosphate
[1] = variants of: B1; test: kcat; higher = faster cleavage; RNA array
Outline: (§1)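 kcat and KM were obtained from weighted Michaelis–Menten fits across concentrations of kobs values. Those came from one- or two-exponential decay fits to per-tile medians normalised to baseline and to non-cleaving reference variants. The variants were barcoded ribozymes transcribed in situ by E. coli RNA polymerase on sequenced MiSeq chips and tracked through a hybridised Cy3 probe at 37 °C, with 40 μM to 10 mM glucosamine-6-phosphate in HEPES/KCl/Mg(OAc)2 buffer flowed in.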

[2] = variants of: B1; test: self-cleavage kobs at 40 uM GlcN6P; higher = faster cleavage; RNA array
Outline: as §1

[3] = variants of: B1; test: self-cleavage kobs at 160 uM GlcN6P; higher = faster cleavage; RNA array
Outline: as §1

[4] = variants of: B1; test: KM; higher = weaker cofactor use; RNA array
Outline: as §1

[5] = variants of: B1; test: self-cleavage kobs at 640 uM GlcN6P; higher = faster cleavage; RNA array
Outline: as §1

[6] = variants of: B1; test: self-cleavage kobs at 2500 uM GlcN6P; higher = faster cleavage; RNA array
Outline: as §1

[7] = variants of: B1; test: self-cleavage kobs at 10000 uM GlcN6P; higher = faster cleavage; RNA array
Outline: as §1

Variant | kcat [1] | self-cleavage kobs at 40 uM GlcN6P [2] | self-cleavage kobs at 160 uM GlcN6P [3] | KM [4] | self-cleavage kobs at 640 uM GlcN6P [5] | self-cleavage kobs at 2500 uM GlcN6P [6] | self-cleavage kobs at 10000 uM GlcN6P [7]
AUAAAAGCGCCAGAACUACAGAAAUGUACUUGACGAGGAGGAGGUUUCUCGAAUUUUCGGCGGAUGCCUCCAAA | 1.23e-05 ± 3.5e-06 s⁻¹ | < 1e-05 s⁻¹ | < 1e-05 s⁻¹ | – | – | – | –
AUAAAAGCGCCAGAACUACAGAAAUGUAGUUGACGAGGAGGAGGUUGAUCGAAUUUUCGGCGGGUGCCUGCAAA | 3.26e-05 ± 9.4e-06 s⁻¹ | < 1e-05 s⁻¹ | – | – | – | – | –
AUAAAAGCGCCAGAACUACAGAAAUGUAGUAGACGAGGAGGAGGUUUAUCGACUUUUCGGCGGAUGCCUCCAAA | 0.00557 ± 0.0019 s⁻¹ | 4.92e-05 ± 9.4e-06 s⁻¹ | 0.000229 ± 3.4e-05 s⁻¹ | 5300 ± 2300 µM | 0.000507 ± 6.9e-05 s⁻¹ | 0.00162 ± 0.00025 s⁻¹ | 0.00393 ± 0.00053 s⁻¹
AUAAAAGCGCCAGAACUACAGAAAUGUAGUUGACGAGGAGGAGUUCUAUCGAAUUUUCGGCGGAUGCCUCCAAA | 1.46e-05 ± 1.4e-06 s⁻¹ | – | – | 5110 ± 1200 µM | – | – | –
AUAAAAGCGCCAGAACUACAGAAAUGUAGUUGACGAGGAGUAGGUAUAUCGAAUUUUCGGCGGAUGCCUCCAAA | 0.000481 ± 0.0001 s⁻¹ | – | 4.83e-05 ± 1.9e-05 s⁻¹ | 2400 ± 860 µM | 9.28e-05 ± 1.2e-05 s⁻¹ | 0.000324 ± 5.4e-05 s⁻¹ | 0.000362 ± 5.7e-05 s⁻¹
AUAAAAGCGCCAGAACUACAGAAAUGUAGUUGACGAGGGGGAGGUUUAUCGAAUUUUCGGCGGCUGCCUCCAAA | 0.000357 ± 5.4e-05 s⁻¹ | – | – | 2860 ± 950 µM | 5.91e-05 ± 2.4e-05 s⁻¹ | 0.000202 ± 5.3e-05 s⁻¹ | 0.000267 ± 5.3e-05 s⁻¹
AUAAAAGCGCCAGAACUACAGAAAUGUACUUGACGAGGAGGAGGUUUAUCGAAUUUUCGGCGGAAGCCUCCAAA | 0.000197 ± 2.5e-05 s⁻¹ | – | – | 2100 ± 780 µM | 3.62e-05 ± 1.2e-05 s⁻¹ | 0.00013 ± 1.8e-05 s⁻¹ | 0.000157 ± 1.5e-05 s⁻¹
AUAAAAGCGCCAGAACUACAGAAAUGUAGUUGACGAGGAGUAGGUUUAUCGACUUUUCGGCGGAUGCCUCCAAA | 0.000167 ± 4e-05 s⁻¹ | < 1e-05 s⁻¹ | – | – | 5.64e-05 ± 1.2e-05 s⁻¹ | 7.23e-05 ± 9.5e-06 s⁻¹ | 0.000139 ± 1.2e-05 s⁻¹
AUAAAAGCGCCAGAACUACAGAAAUGUAGUUGACGAGGAGGAGGUUAAUCGAAUUUUCGGCGGAUUCCUCCAAA | 0.00545 ± 0.0009 s⁻¹ | 0.00013 ± 2.5e-05 s⁻¹ | – | 1780 ± 480 µM | 0.00141 ± 0.00028 s⁻¹ | 0.00244 ± 0.00069 s⁻¹ | 0.00506 ± 0.00076 s⁻¹
AUAAAAGCGCCAGAACUACAGAAAUGUAGUUGACGAGGUCGAGGUUUAUCGAAUUUUCGGCGGAUGCCUCCAAA | 0.00382 ± 0.00081 s⁻¹ | 0.00011 ± 1.5e-05 s⁻¹ | 0.000253 ± 4.7e-05 s⁻¹ | 1850 ± 560 µM | 0.00089 ± 0.0001 s⁻¹ | 0.00244 ± 0.00039 s⁻¹ | 0.00324 ± 0.00043 s⁻¹
AUAAAAGCGUCAGAACUACAGAAAUGUAGUUGACGAGGAGGAGGUUGAUCGAAUUUUCGGCGGAUGCCUCCAAA | < 1e-05 s⁻¹ | – | < 1e-05 s⁻¹ | – | – | – | –
AUAAAAGCGCCAGAACUACAGAAAUGUAGUUAACGAGGAGGUGGUUUAUCGAAUUUUCGGCGGAUGCCUACAAA | < 1e-05 s⁻¹ | < 1e-05 s⁻¹ | < 1e-05 s⁻¹ | – | < 1e-05 s⁻¹ | – | –
AUAAAAGCGCCCGAACUACAGAAAUGUAGUUGACGAGGAGGAGGUUUAUCGAAUUUUCGGCGGCUGCCUCCAAA | 0.000233 ± 1.8e-05 s⁻¹ | – | – | 4850 ± 770 µM | – | 8.34e-05 ± 1.5e-05 s⁻¹ | 0.000156 ± 2e-05 s⁻¹
AUAAAAGCGCCAGAACUACAGAAAUGUAGUUGACGAGGAGGAGGUUUAUGGAAUUCUCGGCGGAUGCCUCCAAA | 1.76e-05 ± 2.6e-06 s⁻¹ | – | – | – | – | – | –
AUAAAAGCGCCAGAACUACAGAAAUGUAGUUGACGAGGAGGAGGUUUAUCGAAUUUUCAGCGGAUACCUCCAAA | 0.000247 ± 1.9e-05 s⁻¹ | – | – | – | – | – | –
AUAAAAGCGCCAGAACUACAGAAAUGUAGUUGACGAGGAGGAGGUUCAUCGAAUUUUCGGCGGAUGCCUCUAAA | 0.00356 ± 0.00095 s⁻¹ | 0.000124 ± 1.4e-05 s⁻¹ | 0.000184 ± 6.7e-05 s⁻¹ | 1310 ± 520 µM | 0.00148 ± 0.0002 s⁻¹ | 0.00219 ± 0.00045 s⁻¹ | 0.00312 ± 0.00038 s⁻¹
AUAAAAGCGCCAGGACUACAGAAAUGUAGUUGACGAGGAGGAGGUUUAUCGAAUUUUCGGCGUAUGCCUCCAAA | < 1e-05 s⁻¹ | < 1e-05 s⁻¹ | < 1e-05 s⁻¹ | – | < 1e-05 s⁻¹ | < 1e-05 s⁻¹ | –
AUAAAAGCGCCAGAACUACAGAAAUGUAGUUGACGAAGAGGAGGUUUAUCGAAUUUUCGGCGGAGGCCUCCAAA | 0.000263 ± 1.3e-05 s⁻¹ | – | – | 3870 ± 390 µM | 4.13e-05 ± 1.5e-05 s⁻¹ | 0.000102 ± 1.2e-05 s⁻¹ | 0.000191 ± 2.3e-05 s⁻¹
